The results in this text go back to paper PMC5316841.

This assay concerns the target Fbxw7 (UniProt Q969H0). Briefly: anti-FLAG co-IP, HSF1 immunoblot. The note with it: reference: wild type HSF1; sites S303. A general note: A western blot detects proteins with antibodies after separation by electrophoresis.

With HSF1 (from UniProt Q00613) HSF1 S303A, the “binding against the reference” value is given as “weaker”.
